Measured values: PMC5596431 (Cell Death and Differentiation, 2017)

Molecular target: BiP (binding immunoglobulin protein), ER-resident chaperone (human (endogenous in H1299), UniProt P11021 19-654)
Experiment: proximity ligation

BiP (binding immunoglobulin protein), ER-resident chaperone, sequence (P11021 19-654): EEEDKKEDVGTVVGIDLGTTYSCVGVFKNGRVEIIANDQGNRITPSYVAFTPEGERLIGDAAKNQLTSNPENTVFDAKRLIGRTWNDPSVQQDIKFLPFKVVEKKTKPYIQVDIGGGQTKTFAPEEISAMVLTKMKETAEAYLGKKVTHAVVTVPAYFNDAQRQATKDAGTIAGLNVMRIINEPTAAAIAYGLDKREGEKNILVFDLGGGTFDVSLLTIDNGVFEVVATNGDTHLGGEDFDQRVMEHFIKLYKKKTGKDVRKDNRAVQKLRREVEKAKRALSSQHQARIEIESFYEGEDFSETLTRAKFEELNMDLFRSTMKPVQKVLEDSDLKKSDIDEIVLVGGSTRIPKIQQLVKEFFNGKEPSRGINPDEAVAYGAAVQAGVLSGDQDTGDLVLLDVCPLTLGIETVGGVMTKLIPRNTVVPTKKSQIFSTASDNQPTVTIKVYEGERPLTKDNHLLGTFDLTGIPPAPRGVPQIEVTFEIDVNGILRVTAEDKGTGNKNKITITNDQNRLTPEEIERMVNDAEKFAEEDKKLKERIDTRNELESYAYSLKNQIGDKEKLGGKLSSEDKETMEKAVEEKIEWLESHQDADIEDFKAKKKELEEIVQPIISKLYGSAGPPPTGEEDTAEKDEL

ratio of PLA BIK/BiP complexes in p53-positive/p53-negative cells, DMSO: 1.3 ratio | ratio of PLA BIK/BiP complexes in p53-positive/p53-negative cells, thapsigargin: 0.4 ratio
B1: BIK, BH3-only pro-apoptotic member of the BCL-2 family (natural protein, human (endogenous in H1299), UniProt Q13323 1-160, looked up)
chain: MSEVRPLSRDILMETLLYEQLLEPPTMEVLGMTDSEEDLDPMEDFDSLECMEGSDALALRLACIGDEMDVSLRAPRLAQLSEVAMHSLGLAFIYDQTEDIRDVLRSFMDGFTTLKENIMRFWRSPNPGSWVSCEQVLLALLLLLALLLPLLSGGLHLLLK
